This note sets out measurements from the Immune Epitope Database (IEDB).

One assay deals with HLA-C*05:01. Briefly: IEDB peptide-MHC binding, purified MHC/direct/fluorescence; filed as Kd, often an IC50 or EC50 that approximates it; ≥ and ≤ were set here for values at or beyond the usual limits of such assays.
Assay [1] addresses HLA-B*07:02. As to the kind of experiment: IEDB peptide-MHC binding, purified MHC/competitive/radioactivity; filed as Kd, often an IC50 or EC50 that approximates it; ≥ and ≤ were set here for values at or beyond the usual limits of such assays. The conditions noted are these: source organism: SARS coronavirus Tor2.
Assay [2] deals with HLA-B*35:01. The assay is described as above. The following applies: source organism: SARS coronavirus Tor2.
The target of the next assay is HLA-B*51:01. The assay is described as above. The conditions noted are these: source organism: SARS coronavirus Tor2.
The next assay addresses HLA-B*53:01. Described as above. The following applies: source organism: SARS coronavirus Tor2.
The target in the next assay is HLA-B*54:01. Described as above. The following applies: source organism: SARS coronavirus Tor2.
The next assay concerns the target HLA-C*08:02. Briefly: IEDB peptide-MHC binding, purified MHC/direct/fluorescence; filed as Kd, often an IC50 or EC50 that approximates it; ≥ and ≤ were set here for values at or beyond the usual limits of such assays.
Assay [3] addresses HLA-A*01:01. As to the kind of experiment: IEDB peptide-MHC binding, purified MHC/competitive/fluorescence; filed as Kd, often an IC50 or EC50 that approximates it; ≥ and ≤ were set here for values at or beyond the usual limits of such assays.
In assay [4] the target is HLA-B*35:01. Described as above.
The target of a further assay is HLA-C*12:03. As to the kind of experiment: IEDB peptide-MHC binding, purified MHC/direct/fluorescence; filed as Kd, often an IC50 or EC50 that approximates it; ≥ and ≤ were set here for values at or beyond the usual limits of such assays. The conditions noted are these: source organism: Toxoplasma gondii RH.
The next assay addresses HLA-A*68:02. As to the kind of experiment: IEDB peptide-MHC binding, purified MHC/competitive/fluorescence; filed as Kd, often an IC50 or EC50 that approximates it; ≥ and ≤ were set here for values at or beyond the usual limits of such assays. The following applies: source organism: Toxoplasma gondii RH.
The target in assay [5] is HLA-B*15:01. The description is as above.
In assay [6] the target is HLA-B*40:01. The assay is described as above.
The target of assay [7] is HLA-B*08:01. The assay is described as above. The conditions noted are these: source organism: Escherichia coli.
The target in assay [8] is HLA-A*01:01. As to the kind of experiment: IEDB peptide-MHC binding, purified MHC/direct/fluorescence; filed as Kd, often an IC50 or EC50 that approximates it; ≥ and ≤ were set here for values at or beyond the usual limits of such assays.
A further assay concerns the target HLA-A*02:01. The assay is described as above.
Assay [9] addresses HLA-A*03:01. The assay is described as above.
The target of a further assay is HLA-A*11:01. The description is as above.
Assay [10] addresses HLA-A*26:01. Described as above.
A further assay deals with HLA-A*31:01. The description is as above.
The target in the next assay is HLA-A*69:01. The description is as above.
Assay [11] concerns the target HLA-B*08:01. The assay is described as above.
Assay [12] has as its target HLA-B*15:01. Described as above.
A further assay concerns the target HLA-B*27:05. The assay is described as above.
Assay [13] deals with HLA-B*35:01. Described as above.
The target of assay [14] is HLA-B*40:01. Described as above.
A further assay has as its target HLA-B*44:02. Described as above.
The target in assay [15] is HLA-B*58:01. Described as above.
For assay [16], the target named is HLA-B*58:01. As to the kind of experiment: IEDB peptide-MHC binding, purified MHC/competitive/fluorescence; filed as Kd, often an IC50 or EC50 that approximates it; ≥ and ≤ were set here for values at or beyond the usual limits of such assays.
For assay [17], the target named is HLA-A*03:01. The description is as above. The conditions noted are these: source organism: Escherichia coli str. K-12 substr. MG1655.
The target of assay [18] is HLA-A*26:01. Described as above. The conditions noted are these: source organism: Escherichia coli str. K-12 substr. MG1655.
A further assay deals with HLA-A*24:03. Briefly: IEDB peptide-MHC binding, purified MHC/direct/fluorescence; filed as Kd, often an IC50 or EC50 that approximates it; ≥ and ≤ were set here for values at or beyond the usual limits of such assays. The following applies: source organism: Coxiella burnetii.
Assay [19] addresses HLA-B*07:02. Described as above. The following applies: source organism: Coxiella burnetii.
The next assay deals with HLA-A*29:02. The description is as above. The following applies: source organism: Mycobacterium tuberculosis.
In a further assay the target is HLA-B*08:03. Described as above. The following applies: source organism: Mycobacterium tuberculosis str. Haarlem.
The next assay has as its target HLA-B*18:01. Described as above. The conditions noted are these: source organism: Mycobacterium tuberculosis.
The next assay deals with HLA-B*46:01. The description is as above. The following applies: source organism: Mycobacterium tuberculosis.
Another assay concerns the target HLA-B*57:01. The description is as above. The conditions noted are these: source organism: Mycobacterium tuberculosis.
A further assay addresses HLA-C*03:03. The assay is described as above. The conditions noted are these: source organism: Mycobacterium tuberculosis C.
Setting [20] is: source organism: Salmonella enterica subsp. enterica serovar Typhi.
[21] abbreviates: source organism: Shigella flexneri 5 str. 8401.
Setting [22] is: source organism: Escherichia coli O157:H7.
The mark [23] stands for this setting: source organism: Escherichia coli str. K-12 substr. MG1655.
Setting [24] is: source organism: Coxiella burnetii.
The mark [25] stands for this setting: source organism: Mycobacterium tuberculosis.

A word on the Kd: it is the equilibrium constant for the complex coming apart.

Turning to APYMVGDVI, the Kd was not below 20 µM with HLA-C*05:01 (source organism: SARS-CoV1); 0.139 µM in the assay with HLA-B*07:02 [1]; 11 µM with HLA-B*35:01 [2]; 0.08 µM in the assay with HLA-B*51:01; 3.58 µM with HLA-B*53:01; not below 27.3 µM with HLA-B*54:01.

As for FAADKDSLY, the figures for the dissociation constant Kd with HLA-C*08:02 (source organism: Salmonella enterica subsp. enterica serovar Typhi str. CT18), with HLA-A*01:01 [3] (setting [20]) and with HLA-B*35:01 [4] (setting [20]) were not below 20 µM, 0.313 µM and 0.0002 µM, respectively.

As to FLDPHPYYV, the Kd is not above 0.001 µM in the assay with HLA-C*05:01 (source organism: Toxoplasma gondii RH), 0.047 µM with HLA-C*12:03 and 0.0563 µM with HLA-A*68:02.

Turning to GELESAIGL, the Kd was not below 20 µM in the assay with HLA-B*15:01 [5] (setting [21]) and 0.0028 µM with HLA-B*40:01 [6] (setting [21]).

Regarding HENARLRAL, the figures for the Kd with HLA-B*08:01 [7] and in the assay with HLA-B*40:01 [6] (source organism: Escherichia coli) were 0.175 µM and 0.0048 µM, respectively.

Consider IEVTNATEL, for which the Kd with HLA-B*40:01 [6] (source organism: Influenza A virus) worked out at 0.0056 µM.

On to IRNPPMVVF, for which the Kd with HLA-A*01:01 [8] (setting [22]), in the assay with HLA-A*02:01 (setting [22]), in the assay with HLA-A*03:01 [9] (setting [22]), with HLA-A*11:01 (setting [22]), with HLA-A*26:01 [10] (setting [22]) and in the assay with HLA-A*31:01 (setting [22]) was not below 20 µM throughout. The Kd was not below 20 µM with HLA-A*69:01 (setting [22]); not below 20 µM in the assay with HLA-B*08:01 [11] (setting [22]); not below 20 µM with HLA-B*15:01 [12] (setting [22]); 3.25 µM in the assay with HLA-B*27:05 (setting [22]); not below 10 µM with HLA-B*35:01 [13] (setting [22]); not below 20 µM with HLA-B*40:01 [14] (setting [22]). For the same sequence, the Kd with HLA-B*44:02 (setting [22]) and with HLA-B*58:01 [15] (setting [22]) was not below 20 µM throughout.

ISASLAALF came in with a Kd with HLA-B*58:01 [16] (source organism: Bacillus anthracis str. A0488) of 0.0017 µM.

Turning to KVGITGFCY, the Kd with HLA-A*03:01 [17] is 2.2 µM; with HLA-B*15:01 [5] (setting [23]) it was 0.247 µM; with HLA-B*58:01 [16] (setting [23]) it was 0.418 µM.

In the assay with HLA-B*40:01 [6] (source organism: Yersinia frederiksenii ATCC 33641), MENMLDLLM had a Kd of 0.0102 µM.

In the case of RINEGWPAY, the equilibrium dissociation constant (Kd) is 0.481 µM with HLA-A*01:01 [3] (setting [23]); 0.0422 µM in the assay with HLA-A*03:01 [17]; not below 20 µM with HLA-A*26:01 [18]; 0.084 µM with HLA-B*15:01 [5] (setting [23]); 0.0592 µM with HLA-B*35:01 [4] (setting [23]); not below 20 µM with HLA-B*58:01 [16] (setting [23]).

WAPEGDIRL: the dissociation constant (Kd) was not below 20 µM in the assay with HLA-A*01:01 [8] (setting [24]); 0.33 µM with HLA-A*02:01 (setting [24]); not below 20 µM with HLA-A*03:01 [9] (setting [24]); not below 20 µM in the assay with HLA-A*11:01 (setting [24]); not below 20 µM with HLA-A*24:03; not below 20 µM in the assay with HLA-A*26:01 [10] (setting [24]). For the same sequence, the Kd with HLA-A*31:01 (setting [24]) was not below 20 µM; with HLA-A*69:01 (setting [24]), not below 20 µM; with HLA-B*07:02 [19], 4.29 µM; in the assay with HLA-B*08:01 [11] (setting [24]), not below 20 µM; with HLA-B*15:01 [12] (setting [24]), not below 20 µM; with HLA-B*27:05 (setting [24]), not below 20 µM. The Kd in the assay with HLA-B*35:01 [13] (setting [24]) was 0.899 µM; in the assay with HLA-B*40:01 [14] (setting [24]), not below 20 µM; in the assay with HLA-B*44:02 (setting [24]), not below 20 µM; with HLA-B*58:01 [15] (setting [24]), not below 20 µM.

With WMRGRGRAL, the Kd with HLA-A*01:01 [8] (setting [25]), with HLA-A*02:01 (setting [25]), in the assay with HLA-A*03:01 [9] (setting [25]), in the assay with HLA-A*11:01 (setting [25]), with HLA-A*29:02 and in the assay with HLA-A*31:01 (setting [25]) was not below 20 µM in each case. For the same sequence, the Kd in the assay with HLA-A*69:01 (setting [25]), in the assay with HLA-B*08:03, with HLA-B*18:01, with HLA-B*27:05 (setting [25]), with HLA-B*40:01 [14] (setting [25]) and in the assay with HLA-B*44:02 (setting [25]) was not below 20 µM in each case. Moreover, the Kd in the assay with HLA-B*46:01, with HLA-B*57:01 and with HLA-B*58:01 [15] (setting [25]) was not below 20 µM each time.

In the case of YLPDPTVGV, the Kd in the assay with HLA-C*03:03 and with HLA-C*08:02 (source organism: Mycobacterium tuberculosis C) was not below 20 µM throughout.
